Measurements as given in publication PMC10287910.

How the values were obtained:
[1] = biological target: ParA2 ATPase (wild type), Vibrio cholerae chromosome 2 (Vibrio cholerae); assay: SEC-MALS; 40 uM ParA2 alone or pre-incubated with ADP or ATP; Superdex 200 10/300 GL; 50 mM Tris-HCl pH 7.5, 100 mM NaCl, 5.0 mM MgCl2, 0.1 mM EDTA, 1.0 mM DTT, 1.0 mM NaN3; monomer to dimer
[2] = system: ParA2-GFP (Vibrio cholerae); assay: EMSA
[3] = system: ParA2 K124Q (Vibrio cholerae); assay: EMSA
ParA2 (Vibrio cholerae) = assay: EMSA
[4] = system: ParA2 K124E (Vibrio cholerae); assay: EMSA
[5] = system: ParA2 K124R (Vibrio cholerae); assay: EMSA
[6] = biological target: ParA2 ATPase (wild type), Vibrio cholerae chromosome 2 (Vibrio cholerae)

ParA2 ATPase (wild type), Vibrio cholerae chromosome 2 (enzyme)
stoichiometry N [1]: 2

CGAGGTCGACGGTATCGATAAGCTTGATATCGAATTCCTGCAGCCCGGGGGATCCACTAGTTCTAGAGC (double strand) [Cy3-69 bp nsDNA]
Kd [2]: 0.04 µM
Kd [3]: 0.138 µM
Kd (ParA2 (Vibrio cholerae)): 1 µM
Kd [4]: 0.452 µM
Kd [5]: 0.0471 µM

ParB2, Vibrio cholerae chromosome 2 (natural protein)
pre-steady state ATP hydrolysis rate of ParA2 (1.5 uM), stimulation by ParB2 at equimolar concentration [6]: 3 fold
pre-steady state ATP hydrolysis rate of ParA2 (1.5 uM), stimulation in the presence of both DNA and ParB2 [6]: 8 fold
